In patent publication EP4692116A1 (Kexing Biopharm Co., Ltd., dated 2026):

T1: human GDF15 protein (Novoprotein, Cat# DRA26) (human, UniProt Q99988 197-308)
T1 sequence (looked up): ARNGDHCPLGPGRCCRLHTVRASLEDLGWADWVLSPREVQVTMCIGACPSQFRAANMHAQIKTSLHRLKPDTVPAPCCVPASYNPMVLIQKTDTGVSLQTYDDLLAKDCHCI

T2: Human GDNF protein (Novoprotein, Cat# C226) (human, UniProt P39905 78-211)
T2 construct: Bought protein
T2 sequence (looked up): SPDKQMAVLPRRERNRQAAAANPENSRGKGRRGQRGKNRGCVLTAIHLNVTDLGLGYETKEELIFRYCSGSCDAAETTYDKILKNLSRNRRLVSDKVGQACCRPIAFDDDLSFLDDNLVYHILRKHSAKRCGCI

T3: GDF15-Biotin protein (KACTUS, Cat# GDF-HM215B) (human, UniProt Q99988 197-308, limits assumed, biotin (site not stated))
T3 construct: Bought biotinylated protein; also called human GDF15
T3 sequence (looked up): T1 sequence (looked up)

B1: LN05 GDF15 heavy chain single-domain antibody (full-length, VHH joined to human IgG1 Fc) (antibody, V domains shown)
VH: QVQLVESGGGLVQPGGSLRLSCAASGFTLDYYAIGWFRQAPGKGREGVSCISSNDGSTYYSDSVKGRFTTSRDNAKNTVYLQMNSLKPEDTAVYYCAADLTPCPVNPSVDHYWGQGTQVTVSS
notes: expressed in CHO cells, Protein A purified; No light chain; also called LN05 full-length
B2: LN06 GDF15 heavy chain single-domain antibody (full-length, VHH joined to human IgG1 Fc) (antibody, V domains shown)
VH: QLQLVESGGGLVQPGGSLRLSCVASGFTLDDYAIGWFRQAPGKGLEGVSCISSSDESTYYADSVKGRFTISRDNAKNTAYLQMNSLKPEDTAIYYCAADTECPVQVTSMAWGQGTQVTVSS
notes: expressed in CHO cells; No light chain; also called LN06 full-length
B3: LN13 GDF15 heavy chain single-domain antibody (full-length, VHH joined to human IgG1 Fc) (antibody, V domains shown)
VH: QLQLVESGGGLVQPGGSLRLSCAASGFTLDYYAIGWFRQAPGKGPEAVSCISSSDGSTYYSDSVKGRFTISRDNAKNTVYLQMNSLKPEDTAVYYCAAGEYGSDCPVQVGSWGQGTQVTVSS
notes: expressed in CHO cells; No light chain; also called LN13 full-length
B4: LN14 GDF15 heavy chain single-domain antibody (full-length, VHH joined to human IgG1 Fc) (antibody, V domains shown)
VH: QVQLVESGGGLVQPGGSLRLACAASGFTLDAYAVGWFRQAPGKNPEGVSCISSSDGSAYYADSVKGRFTISRDNAKNTVYLQMNSLKPGDTAVYYCAADLSCPVQIATFHSRGQGTQVTVSS
notes: expressed in CHO cells; No light chain; also called LN14 full-length
B5: LN25 GDF15 heavy chain single-domain antibody (full-length, VHH joined to human IgG1 Fc) (antibody, V domains shown)
VH: QLQLVESGGGEVQPGGSLRLSCAASGATLDDLSIGWFRQAPGKGLEGVSCISSSDGSTYYADSVKGRFTISRDNAKNTAYLQMNSLRPEDTAVYYCAADREDCPVQPWGIVAGTSRGQGTQVTVSS
notes: expressed in CHO cells; No light chain; also called LN25 full-length
B6: LN11 GDF15 heavy chain single-domain antibody (VHH joined to human IgG1 Fc) (antibody, V domains shown)
VH: QVQLVESGGGLVQPGGSLRLSCAASGFTIRTYTMSWYRQAPGKERALVAYITPGGPTYHIDSVKGRFTISRNNAENTVYLQMNSLKPEDTAVYYCGNGFGSWGQGTQVTVSS

Assays:
[1] = target: human GDF15 protein (Novoprotein, Cat# DRA26) (human) (UniProt Q99988); experiment: cell-based or functional assay
[2] = target: human GDF15 protein (Novoprotein, Cat# DRA26) (human) (UniProt Q99988); experiment: ELISA, human GDF15 coated, anti-human Fc-HRP detection
[3] = target: GDF15-Biotin protein (KACTUS, Cat# GDF-HM215B) (human) (UniProt Q99988); experiment: blocking ELISA: GFRAL coated, 20 ng/mL GDF15-Biotin with titrated antibody, Streptavidin-HRP
[4] = target: ARTN protein (Novoprotein, Cat# CR34) (human) (UniProt Q5T4W7); experiment: ELISA, ARTN coated, antibody from 2,000 nM, anti-human Fc-HRP detection
[5] = target: Human GDNF protein (Novoprotein, Cat# C226) (human) (UniProt P39905); experiment: ELISA, GDNF coated, antibody from 2,000 nM, anti-human Fc-HRP detection
[6] = target: T1, human GDF15 protein (Novoprotein, Cat# …); experiment: cell-based or functional assay
[7] = target: T2, Human GDNF protein (Novoprotein, Cat# …); experiment: ELISA, GDNF coated, antibody from 2,000 nM
[8] = target: T1, human GDF15 protein (Novoprotein, Cat# …); experiment: ELISA, human GDF15 coated, anti-human Fc-HRP detection
[9] = target: T3, GDF15-Biotin protein (KACTUS, Cat# …); experiment: blocking ELISA: GFRAL coated, 20 ng/mL GDF15-Biotin with titrated antibody, Streptavidin-HRP

ARTN protein (Novoprotein, Cat# CR34) (human), sequence (Q5T4W7 108-220 limits assumed): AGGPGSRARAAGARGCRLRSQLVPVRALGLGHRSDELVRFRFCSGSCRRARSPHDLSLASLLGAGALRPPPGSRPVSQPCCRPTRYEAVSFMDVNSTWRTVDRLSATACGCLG

Molecule	IC50 of GDF15 reporter gene activity [1]	EC50 [2]	IC50 [3]	EC50 [4]	EC50 [5]	IC50 of GDF15 reporter gene activity [6]	binding result [7]	EC50 [8]	IC50 [9]
CTL002 (CatalYm humanized GDF15 monoclonal antibody, positive control)	1.99 nM	0.0933 nM	1.5 nM						
PF-06946860 (Pfizer GDF15 monoclonal antibody, positive control)	0.0475 nM	0.0974 nM	0.11 nM	97.1 nM	278 nM				
B1						0.0778 nM	binds	0.0912 nM	0.221 nM
B2						0.0705 nM	binds	0.0832 nM	0.175 nM
B3						0.0719 nM	binds	0.0858 nM	0.147 nM
B4						0.0701 nM		0.0988 nM	0.16 nM
B5						0.0735 nM	binds	0.0892 nM	0.171 nM
B6								0.382 nM	
